# In PMC11969024 (2025):
# B1: peptide HD2 (from tick evasin EVA4) / CXCL14 (biotinylated, synthetic) (parent complex)
# chain 1: EEDDYTAYAPLTCYFT
# chain 2: SKCKCSRKGPKIRYSDVKKLEMKPKYPHCEEKMVIITTKSVSRYRGQEHCLHPKLQSTKRFIKWYNAWNEKRRVYEE
# B2: peptide HD2 (from tick evasin EVA4) / CCL1 (biotinylated, synthetic) (parent complex)
# chain 1: EEDDYTAYAPLTCYFT
# chain 2: KSMQVPFSRCCFSFAEQEIPLRAILCYRNTSSICSNEGLIFKLKRGKEACALDTVGWVQRHRKMLRHCPSKRK
# Variants of: B1
row,Variant,enrichment
1,chain 1 ELDDYTAYAPLTCYFT [chain 1 E2L],-1.86 log2 (difference from the parental peptide)
2,chain 1 EEDDYTAYAPLTCYIT [chain 1 F15I],-3.52 log2 (difference from the parental peptide)
3,chain 1 EEDDYTAYAPTTCYFT [chain 1 L11T],-4.92 log2 (difference from the parental peptide)
4,chain 1 EEDDYTAYAPWTCYFT [chain 1 L11W],0.85 log2 (difference from the parental peptide)
5,chain 1 EEDDYTAYAPMTCYFT [chain 1 L11M],2.64 log2 (difference from the parental peptide)
6,chain 1 EEDDYTAYAPSTCYFT [chain 1 L11S],-6.87 log2 (difference from the parental peptide)
7,chain 1 EEDDYHAYAPLTCYFT [chain 1 T6H],-0.995 log2 (difference from the parental peptide)
8,chain 1 EEDDYCAYAPLTCYFT [chain 1 T6C],-9.38 log2 (difference from the parental peptide)
9,chain 1 EEDDYLAYAPLTCYFT [chain 1 T6L],0.717 log2 (difference from the parental peptide)
10,chain 1 EEDDYAAYAPLTCYFT [chain 1 T6A],0.332 log2 (difference from the parental peptide)
11,chain 1 EEDDYWAYAPLTCYFT [chain 1 T6W],5.58 log2 (difference from the parental peptide)
12,chain 1 EEDDYVAYAPLTCYFT [chain 1 T6V],-0.538 log2 (difference from the parental peptide)
13,chain 1 DEDDYTAYAPLTCYFT [chain 1 E1D],2.43 log2 (difference from the parental peptide)
14,chain 1 FEDDYTAYAPLTCYFT [chain 1 E1F],0.23 log2 (difference from the parental peptide)
15,chain 1 WEDDYTAYAPLTCYFT [chain 1 E1W],-4.16 log2 (difference from the parental peptide)
16,chain 1 IEDDYTAYAPLTCYFT [chain 1 E1I],3.24 log2 (difference from the parental peptide)
17,chain 1 EEDDYTADAPLTCYFT [chain 1 Y8D],2.61 log2 (difference from the parental peptide)
18,chain 1 EEDDYTAVAPLTCYFT [chain 1 Y8V],3.87 log2 (difference from the parental peptide)
19,chain 1 EEDDYTAFAPLTCYFT [chain 1 Y8F],-1.72 log2 (difference from the parental peptide)
20,chain 1 EEDDHTAYAPLTCYFT [chain 1 Y5H],-3.59 log2 (difference from the parental peptide)
21,chain 1 EEDDCTAYAPLTCYFT [chain 1 Y5C],-4.43 log2 (difference from the parental peptide)
22,chain 1 EEDDITAYAPLTCYFT [chain 1 Y5I],0.188 log2 (difference from the parental peptide)
23,chain 1 EEDDYTAYAGLTCYFT [chain 1 P10G],-1.01 log2 (difference from the parental peptide)
24,chain 1 EEDDYTAYASLTCYFT [chain 1 P10S],-0.979 log2 (difference from the parental peptide)
25,chain 1 EEDDYTAYAWLTCYFT [chain 1 P10W],1.96 log2 (difference from the parental peptide)
26,chain 1 EEDDYTAYAPLTVYFT [chain 1 C13V],2.72 log2 (difference from the parental peptide)
27,chain 1 EEDDYTAYAPLTWYFT [chain 1 C13W],-7.91 log2 (difference from the parental peptide)

row,Variant,enrichment
1,chain 1 EEDDYTAYAPLTEYFT [chain 1 C13E],-8.19 log2 (difference from the parental peptide)
2,chain 1 EEDDYTAYYPLTCYFT [chain 1 A9Y],-5.34 log2 (difference from the parental peptide)
3,chain 1 EEDDYTAYIPLTCYFT [chain 1 A9I],0.725 log2 (difference from the parental peptide)
4,chain 1 EEDDYTAYLPLTCYFT [chain 1 A9L],0.282 log2 (difference from the parental peptide)
5,chain 1 EEDDYTAYMPLTCYFT [chain 1 A9M],0.996 log2 (difference from the parental peptide)
6,chain 1 EEDDYTVYAPLTCYFT [chain 1 A7V],-1.42 log2 (difference from the parental peptide)
7,chain 1 EEDDYTFYAPLTCYFT [chain 1 A7F],2.13 log2 (difference from the parental peptide)
8,chain 1 EEDDYTPYAPLTCYFT [chain 1 A7P],-3.32 log2 (difference from the parental peptide)
9,chain 1 EEDDYTLYAPLTCYFT [chain 1 A7L],0.408 log2 (difference from the parental peptide)
10,chain 1 EEDDYTKYAPLTCYFT [chain 1 A7K],3.78 log2 (difference from the parental peptide)
11,chain 1 EEDDYTEYAPLTCYFT [chain 1 A7E],2.45 log2 (difference from the parental peptide)
12,chain 1 EEDSYTAYAPLTCYFT [chain 1 D4S],-1.33 log2 (difference from the parental peptide)
13,chain 1 EEDYYTAYAPLTCYFT [chain 1 D4Y],-1.42 log2 (difference from the parental peptide)
14,chain 1 EEDDYTAYAPLTCLFT [chain 1 Y14L],-8.75 log2 (difference from the parental peptide)
15,chain 1 EEDDYTAYAPLTCQFT [chain 1 Y14Q],-6.31 log2 (difference from the parental peptide)
16,chain 1 EEDDYTAYAPLTCYFE [chain 1 T16E],-5.76 log2 (difference from the parental peptide)
17,chain 1 EEDDYTAYAPLTCYFP [chain 1 T16P],-4.73 log2 (difference from the parental peptide)
18,chain 1 EEDDYTAYAPLTCYFK [chain 1 T16K],0.732 log2 (difference from the parental peptide)
19,chain 1 EEDDYTAYAPLTCYFM [chain 1 T16M],1.39 log2 (difference from the parental peptide)
20,chain 1 EEDDYTAYAPLTCYFV [chain 1 T16V],-2.39 log2 (difference from the parental peptide)
21,chain 1 EEDDYTAYAPLPCYFT [chain 1 T12P],-5.93 log2 (difference from the parental peptide)
22,chain 1 EEDDYTAYAPLKCYFT [chain 1 T12K],-5.85 log2 (difference from the parental peptide)
23,chain 1 EEDDYTAYAPLQCYFT [chain 1 T12Q],-4.89 log2 (difference from the parental peptide)
24,chain 1 EEDDYTAYAPLYCYFT [chain 1 T12Y],2.9 log2 (difference from the parental peptide)
25,chain 1 EEDDYTAYAPLCCYFT [chain 1 T12C],-5.89 log2 (difference from the parental peptide)
26,chain 1 EEDDYTAYAPLLCYFT [chain 1 T12L],1.89 log2 (difference from the parental peptide)

# Variants of: B2
row,Variant,enrichment
1,chain 1 EEDDLTAYAPLTCYFT [chain 1 Y5L],-5.06 log2 (difference from the parental peptide)
2,chain 1 EEDDYTAYYPLTCYFT [chain 1 A9Y],-5.89 log2 (difference from the parental peptide)
3,chain 1 EEDDYTAYEPLTCYFT [chain 1 A9E],2.72 log2 (difference from the parental peptide)
4,chain 1 EEDDYTAYAPWTCYFT [chain 1 L11W],-0.114 log2 (difference from the parental peptide)
5,chain 1 EEDDYTAYAPQTCYFT [chain 1 L11Q],1.31 log2 (difference from the parental peptide)
6,chain 1 EEDDYTAYAPATCYFT [chain 1 L11A],-2.67 log2 (difference from the parental peptide)
7,chain 1 EEDDYTAYAPSTCYFT [chain 1 L11S],-4.97 log2 (difference from the parental peptide)
8,chain 1 EEDDYTAYAPGTCYFT [chain 1 L11G],-8.48 log2 (difference from the parental peptide)
9,chain 1 EEDDYTAYAPRTCYFT [chain 1 L11R],0.643 log2 (difference from the parental peptide)
10,chain 1 EEDDYEAYAPLTCYFT [chain 1 T6E],3.09 log2 (difference from the parental peptide)
11,chain 1 EEDDYCAYAPLTCYFT [chain 1 T6C],-10.4 log2 (difference from the parental peptide)
12,chain 1 EEDDYQAYAPLTCYFT [chain 1 T6Q],1.62 log2 (difference from the parental peptide)
13,chain 1 EEDDYFAYAPLTCYFT [chain 1 T6F],-4.18 log2 (difference from the parental peptide)
14,chain 1 EEDDYIAYAPLTCYFT [chain 1 T6I],-5.87 log2 (difference from the parental peptide)
15,chain 1 EEDDYVAYAPLTCYFT [chain 1 T6V],-5.45 log2 (difference from the parental peptide)
16,chain 1 EEDDYNAYAPLTCYFT [chain 1 T6N],0.938 log2 (difference from the parental peptide)
17,chain 1 EEDDYTAYAPLTCYFL [chain 1 T16L],-0.0976 log2 (difference from the parental peptide)
18,chain 1 EEDDYTAYAPLTCYFC [chain 1 T16C],0.749 log2 (difference from the parental peptide)
19,chain 1 EEDDYTAYAPLTCYFQ [chain 1 T16Q],0.281 log2 (difference from the parental peptide)
20,chain 1 EEDDYTAYAPLTCYFF [chain 1 T16F],-0.729 log2 (difference from the parental peptide)

row,Variant,enrichment
1,chain 1 EEDDYTAYAPLTCYFN [chain 1 T16N],-0.351 log2 (difference from the parental peptide)
2,chain 1 EEDDYTAYAPLPCYFT [chain 1 T12P],0.359 log2 (difference from the parental peptide)
3,chain 1 EEDDYTAYAPLRCYFT [chain 1 T12R],-1.56 log2 (difference from the parental peptide)
4,chain 1 EEDDYTAYAPLYCYFT [chain 1 T12Y],1.88 log2 (difference from the parental peptide)
5,chain 1 EEDDYTAYAPLVCYFT [chain 1 T12V],-1.56 log2 (difference from the parental peptide)
6,chain 1 EEDDYTAYAPLSCYFT [chain 1 T12S],-1.12 log2 (difference from the parental peptide)
7,chain 1 EEDDYTAYAPLCCYFT [chain 1 T12C],-5.86 log2 (difference from the parental peptide)
8,chain 1 EEDDYTMYAPLTCYFT [chain 1 A7M],1.33 log2 (difference from the parental peptide)
9,chain 1 EEDDYTHYAPLTCYFT [chain 1 A7H],-2.76 log2 (difference from the parental peptide)
10,chain 1 EEDDYTFYAPLTCYFT [chain 1 A7F],-3.93 log2 (difference from the parental peptide)
11,chain 1 EEDDYTLYAPLTCYFT [chain 1 A7L],-2.16 log2 (difference from the parental peptide)
12,chain 1 EEDDYTNYAPLTCYFT [chain 1 A7N],-1.23 log2 (difference from the parental peptide)
13,chain 1 EEDDYTAYAPLTCRFT [chain 1 Y14R],-7.32 log2 (difference from the parental peptide)
14,chain 1 EEDDYTAYAPLTCTFT [chain 1 Y14T],-6.17 log2 (difference from the parental peptide)
15,chain 1 EEDDYTAYAPLTCIFT [chain 1 Y14I],-4.18 log2 (difference from the parental peptide)
16,chain 1 EEDDYTAYAPLTCFFT [chain 1 Y14F],0.0997 log2 (difference from the parental peptide)
17,chain 1 EEDPYTAYAPLTCYFT [chain 1 D4P],-4.71 log2 (difference from the parental peptide)
18,chain 1 EEDFYTAYAPLTCYFT [chain 1 D4F],-6.41 log2 (difference from the parental peptide)
19,chain 1 EEDYYTAYAPLTCYFT [chain 1 D4Y],-4.35 log2 (difference from the parental peptide)
20,chain 1 EEDLYTAYAPLTCYFT [chain 1 D4L],-6.1 log2 (difference from the parental peptide)

row,Variant,enrichment
1,chain 1 EEDHYTAYAPLTCYFT [chain 1 D4H],-7 log2 (difference from the parental peptide)
2,chain 1 EEDIYTAYAPLTCYFT [chain 1 D4I],-6.7 log2 (difference from the parental peptide)
3,chain 1 EETDYTAYAPLTCYFT [chain 1 D3T],-2.84 log2 (difference from the parental peptide)
4,chain 1 EEEDYTAYAPLTCYFT [chain 1 D3E],1.49 log2 (difference from the parental peptide)
5,chain 1 EEDDYTAYAPLTNYFT [chain 1 C13N],-5.11 log2 (difference from the parental peptide)
6,chain 1 EEDDYTAYAPLTGYFT [chain 1 C13G],-9.66 log2 (difference from the parental peptide)
7,chain 1 EEDDYTAYAPLTSYFT [chain 1 C13S],-4.71 log2 (difference from the parental peptide)
8,chain 1 EEDDYTAYAPLTCYAT [chain 1 F15A],2.04 log2 (difference from the parental peptide)
9,chain 1 EEDDYTAYAPLTCYNT [chain 1 F15N],-1.79 log2 (difference from the parental peptide)
10,chain 1 EEDDYTAYAPLTCYST [chain 1 F15S],-0.0654 log2 (difference from the parental peptide)
11,chain 1 EHDDYTAYAPLTCYFT [chain 1 E2H],-3.7 log2 (difference from the parental peptide)
12,chain 1 EADDYTAYAPLTCYFT [chain 1 E2A],-1.98 log2 (difference from the parental peptide)
13,chain 1 IEDDYTAYAPLTCYFT [chain 1 E1I],-1.54 log2 (difference from the parental peptide)
14,chain 1 GEDDYTAYAPLTCYFT [chain 1 E1G],-1.01 log2 (difference from the parental peptide)
15,chain 1 REDDYTAYAPLTCYFT [chain 1 E1R],-4.21 log2 (difference from the parental peptide)
16,chain 1 EEDDYTAVAPLTCYFT [chain 1 Y8V],-4.63 log2 (difference from the parental peptide)
17,chain 1 EEDDYTAMAPLTCYFT [chain 1 Y8M],-7.72 log2 (difference from the parental peptide)
18,chain 1 EEDDYTALAPLTCYFT [chain 1 Y8L],-7.27 log2 (difference from the parental peptide)
19,chain 1 EEDDYTAFAPLTCYFT [chain 1 Y8F],-0.41 log2 (difference from the parental peptide)
